In experiment [1] the target is T1, 人CD123 (在细胞上表达) (human, UniProt P26951 19-378). The experiment in a line: cell-based or functional assay.
For experiment [2], the target named is T2, 重组人CD123抗原(细胞外结构域，Sino Biological) (human, UniProt P26951 19-305).
T2 construct: Bought; also called 重组的纯化CD123抗原
T2 sequence: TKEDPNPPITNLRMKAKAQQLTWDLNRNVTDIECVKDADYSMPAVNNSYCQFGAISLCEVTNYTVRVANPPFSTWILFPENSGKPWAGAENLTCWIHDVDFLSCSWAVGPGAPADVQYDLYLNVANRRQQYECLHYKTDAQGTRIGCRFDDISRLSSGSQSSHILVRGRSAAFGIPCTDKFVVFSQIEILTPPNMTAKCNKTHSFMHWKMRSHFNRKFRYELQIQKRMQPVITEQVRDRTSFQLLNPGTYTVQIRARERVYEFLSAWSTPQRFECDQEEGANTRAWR
In words: phage ELISA on captured recombinant antigen.

The target in experiment [3] is T1, 人CD123 (在细胞上表达). The experiment in a line: flow cytometry on the C1R-CD1d cells expressing CD123 used for immunisation.

The values below come from patent CN117545772A (FUSION THERAPEUTICS INC, dated 2024).

Several values for one entry are separate records, joined by “and”; a condition that tells them apart may be missing. Identical values can stand only once.

B1: 1D2-5C8var1(Y105F)-Fc (bispecific antibody, V domains shown)
V domain 1: EVQLLESGGGSVQPGGSLRLSCAASGRPFSNYAMSWFRQAPGKEREFVSAISWSGGSTSYADSVKGRFTISRDNSKNTLYLQMNSLRAEDTAVYYCAAQFSGADFGFGRLGIRGYEYDYWGQGTQVTVSS
V domain 2: EVQLVESGGGLVQAGGSLRLSCAASGRTASSYVMGWFRQAPGKEREFVAVINWNGDSTYYTDSVKGRFAISRDNAKNTVYLQMNSLKPEDTAVYYCAADTRREWYRDGYWGPPARYEYDYRGQGTQVTVSS
For the molecule B1, in the experiment with 人CD123 (在细胞上表达) [1], the “EC50 of T细胞介导的THP-1靶细胞的细胞毒性 (24小时)” value is 1 pM and 3 pM; the “THP-1裂解的EC50 (2号供体)” value is 1 pM; the “THP-1靶细胞裂解的效力(EC50), THP-1:pDC:Vγ9Vδ2T 1:1:2共培养” value was around 1 pM; the “pDC裂解的EC50 (2号供体)” value is 11 pM. In the experiment with 人CD123 (在细胞上表达) [1], the pDC裂解的EC50相对于THP-1裂解的EC50 is around 10 fold.

B2: 抗CD123 VHH 1A3 (VHH)
VHH: EVQLVESGGGLVQAGGSLRLSCAASGRAINTYAMAWFRQAPGKERDFVATISYSGGTTDYAGSVKGRFTISRDNAENTVYLQMNSLKPEDTAVYYCAARDRYNPLARNYNYWGQGTQVTVSS
notes: also called 1A3抗体
Consider B2, for which the binding result (in experiment [2]; in the experiment with 人CD123 (在细胞上表达) [3]) was “binds” throughout.
